Measured values reported in a protein production outcome set (Wang et al. 2014).

Test: label from the status in PepcDB records

MRSRVVREGSVGLMLVAGVGALAGLIFWLRGVSLGQDRYDVIVEFNDTAGLTVGTPVIYRGVQVGQVIDITAQSNSVLVRIQIQPASLAIPRDSVISAQISSLLGSPNLTIEPKRNIPAEVLAKTQPRSPNCDRAVILCNGSVVEGAQSASFASILTSIATLVSEIEQAKLVNTLSQTSRDASEAARSIRQLSSSLQQQIPPLRETLNAAQGAASQVEAAIAENRQSVRTTLTNLESSSQELQDILNSLEPAIDKANSGKLVDNLNELSANLAVASRNIRDVSTALNSPENLLTLQQTLDSARITFQNAQKITTDLNRLTGDPAVIENIRRLINSLGRLLSSTGALQEQVTDLKSLPLLPVSESPAGEAVVRRPNQP
protein production: failed

DDDEPGGKGAMYEVTIEQSGDFRSFIKSVVVVANGTQLKDGATGESLASPVILSDEELAVEKVTLSTTGKAIEFAVSGGVVDGEDGVVNEPMQWVVTVYKNGKEIEKKSLVFRDGKEISTDDLNLYYN
protein production: not failed

MNIIIATTKSWNIKNAQKFKKENESKYNTTIITNKDELTFEKVKLINPEYILFPHWSWIIPKEIFENFTCVVFHMTDLPFGRGGSPLQNLIERGIKKTKISAIKVDGGIDTGDIFFKRDLDLYGTAEEIFMRASKIIFNDMIPELLTKRPVPQKQEGEATVFQRRKPEQSEISPDFDLEKIYDYIRMLDGEGYPRAFIKYGKYRLEFSRASMKNGKIIADVEIIEGDENE
protein production: not failed

MKRVPWVVGGLILIMAYNAALGTLAYWQRRDIIDESLREAVVVADILVREVEANLDRIDRTLSGLTEVLRAYPSAIDVHDPFTHRLLLRRHAITPSLAALFLIGGDGRLRNASLTDKVSEIDVSGEDYFAFHLSNVDDEFFIGAVTTNRLDKSWVIPVSRAVRDSFGRLTGVVAATITTDSIDQMIHSHQLSEGFAVTITQRDAGMIGCLGFTRCWGEGAPHRGDEGLAESGGSGEEVHYLPNGPGVGAFLRGPTYGVEVTVQASDRTLLQPWREKLAFILVLQVFGTLGLGFGITSLYYQMHHRRVSLLDLERANASLESKVAERTRQLAEGEERMRGFIMAARDAVVIIDQKGIISEFNPSATELFGYDVEEVRGQSVNMLMPATYARDHDGHLRKGKPSGQRAIGRGREMIGRRKNGSEFPIELTVGTQSFDGTRVHIGVIRDITERKATEETLRRLANIDGLTGVLNRRSFTEESELLLSLANRHGRRLSMMIVDADHFKGVNDTYGHDAGDRVLKALTGEIAGVLRKTDLLGRIGGEEFAILLPETDQEGAEGLAWRVVLAIRALEVPLPEGGVLKVTVSVGVSCRNTEAATFDWMLKEADTALYAAKHGGRDRVACFGQTQSVARS
protein production: failed

MVHASQLNSYSLAILKLCLFILDFVLLCFFLMLTDEEIDSDSELDEYMEQQIAALPQNEINPEEDDESDSDEMGLDEDDDSSDEEDVEAEAPLKVAPPSKKMPNGAFEIAKGGKKNKSSGGKKRCPFPCGPSCKK
protein production: failed

NDNSPRFEKSVYEADLAENSAPGTPILQLRAADLDVGVNGQIEYVFGAATESVRRLLRLDETSGWLSVLHRIDREEVNQLRFTVMARDRGQPPKTDKATVVLNIKDENDNVP
protein production: not failed

MLKSKRKEIILSRLEQNKSVTLDELTSILETSESTVRRDLDELESAGFLKRVHGGAELPYSLGQELSNQEKAIKNVQKKLDIARQTAKLIAKQDVIFIDAGTTTELLIDFLPHEQLTVVTNSIHHAAKLVDRGIKTIIIGGAVKHSTDASIGQVAINQIRQITVDKAFLGMNGIDEVYLTTPDLEEAAIKEAIINNSQQTFILMDSSKIGQVTFAKVKEINDINLVTNKTDSELMTIIKEKMKVIQV
protein production: failed

SEKPAGSLQEQALKRKERLKALRDRQLQGHAPADGEPERKRALEDTETEDRHRELKLRNYTPEDVELKERQVPKAKPASVDDKVKDQLEAANPEPVIEEVDLANLAPRKPDWDLKRDVAKKLEKLERRTQKAIAELIRERLKGSEEELAGAVGAVGVEEGDSD
protein production: failed

MQETMLDLRTVYECNRCLGCKTLHPQVGIINLENPSLEEDAVKFEFYAVLLIEDCPGGCCCCGRKYYDYSNATMVFLTPGEIFRMSKENTLPDKGYLLAFHPDLLFRTSLKNHIKNYTFFHYRKEEALHLSRRETEKVTCCLSNIEDELHHPIDTHSSIILSRHIELLLDYCTRYYERQFITRENKNKALLENMERLFVEYIASGRLQGGKLPTSGYMAGELDLSVAYFDDLLKFETGKTLEEYLQLKRLDIARHMLLQDGHTPAAVARKLGYPNVQCFSVLFKKITGVAPSDYRLSQN
protein production: not failed

RAKALQKVKEAITLHGGQTILSTGITGDDARLAKAVCEAGVKLLEPNHPALALARGHKGVSNMHAAEQIRHEITNSQMAEAVHGVRNVVPDDIFITVGIAGGFTETLPVPLSEKEILEIARAGADGLHTHKSDWDDLQDIVNLAHQYGLTVDAYIGHPDDLHTFGIPARTPEEVASVAKRMQDIGVDMIGLMTGMSYEGVAAGDIPQMIKDRLRALVGAVDVPTLAEGGINLANAKAFKDTGVNILVVGTAI
protein production: failed

VNSVAARVTELTGREVAAVAERGHSHRWHLYRVELADGTPLFVKALPDDAPALDGLFRAEALGLDWLGRSFGSPVPQVAGWDDRTLAMEWVDERPPTPEAAERFGHQLAAMHLAGAESFGATWDGYIGPLPMDNTPRSTWPEFYAEQRILPYLRRAADRGALTPGDVRLVEKVLDALDHLAGDPEPPARIHGDLWNGNVLWQDDGAVVIDPAAHGGHREADLAMLALFGLPYLDRVRDAYNEVAPLAEGWRARIPLHQLHPLLVHVCLFGAAYRTTLVDTARAALRA
protein production: not failed

MSKTLKEITDQKNELKKFFENFVLNLEKTEIFSEIQKNLTDEVLFVGCGSSYNLALTISYYFERVLKIRTKAIPAGEVAFQKIPDLEERGLAFLFSRTGNTTEVLLANDVLKKRNHRTIGITIEEESRLAKESDLPLVFPVREEAIVMTKSFSMILLSLMFLADKIAGNSTERFSELVGYSPEFFDISWKVIEKIDLKEHDHFVFLGMSEFFGVSLESALKCIEMSLTFSEAYSTLEYRHGPKALVKKGTLVFMQKVSGMDEQEKRLRKELESLGATVLEVGEGGDIPVSNDWKSAFLRTVPAQILGYQKAISRGISPDKPPHLEKTVVL
protein production: not failed

MDFFTDQVKKKFSDKKPESSDPEPNHNKNKPGHTEPTTHKPGHGEPTTHKPVSNTDPTTHRPATNAELMASAKIVAEAAQAAARHESDKLDKAKVAGATADILDAASRYGKLDEKSGVGQYLEKAEQYLHKYETSHSHSSTGGTGSHGNVGGHGGGAGAPAAKKEDEKSGGGHGFGDYAKMAQGFMK
protein production: failed

MLAGATLAIGVIAPQVLPATAHADEQTGESTVNLRILETSDIHVNLMNYDYYQTKTDNKVGLVQTATLVNKAREEAKNSVLFDDGDALQGTPLGDYVANKINDPKKPVDPSYTHPLYRLMNLMKYDVISLGNHEFNYGLDYLNKVISKTEFPVINSNVYKDDKDNNEENDQNYFKPYHVFEKEVEDESGQKQKVKIGVMGFVPPQVMNWDKANLEGKVKAKDIVETAKKMVPKMKAEGADVIVALAHSGVDKSGYNVGMENASYYLTEVPGVDAVLMGHSHTEVKDVFNGVPVVMPGVFGSNLGIIDMQLKKVNGKWEVQKEQSKPQLRPIADSKGNPLVQSDQHLVNEIKDDHQATIDYVNT
protein production: failed

MYFLYVGIFGALGGMCRYAMNLWLGGGDFPSATLAVNLIGCFLLAFIMPFLAEKSRISLVLLNGIGTGFIGAFTTFSAFSVDTIELLQQGEVVLAISYILVSLIGGLVMVKFGRRFSNKLLRRGAHHVD
protein production: failed

AHSSLGAPVHLWGTEEVAAWLEHLSLCEYKDIFTRHDIRGSELLHLERRDLKDLGVTKVGHMKRILCGIKELSRSAPAVEA
protein production: failed

MKVYLHFSPQFFANTYLIGNEITKEAVIIDPAKITEKMIHQIEKNEFNLKAVLLTHDLEHPYETGLNTILKIYSPKVYAGSCFSENVTINTLRGDGCIDVAGYSVRYFAIPAHSSYSYMFQIENMVFTGTSLSAGMIGQTSNMYAERTLRNILKTKLMCFEDNLIIMPFYGPPTSIGVERKYNASFFQDFEKKPFLEHHHHHH
protein production: not failed

MAEVHNQLEIKFRLTDGSDIGPKAFPDATTVSALKETVISEWPREKENGPKTVKEVKLISAGKVLENSKTVKDYRSPVSNLAGAVTTMHVIIQAPVTEKEKKPKGDPKMNKCVCSVM
protein production: not failed

MGGGEVKMMSLLEEMKGIYSKKGGKVKPFEKFEGELKEGYRFEYEKKLCEIDVAMFGLISGDLNPVHFDEDFASKTRFGGRVVHGMLTTSLVSAAVARLPGTVVLLEQSFRYTSPVRIGDVVRVEGVVSGVEKNRYTIDVKCYTGDKVVAEGVVKVLIW
protein production: not failed

MIIDTPLADRYPHAMKNQDESGDGWESLCERCGLCCFEKIEDENGTVFFTATPCRYLDVTTRQCVIYDKRFDINPECVKLTEELVRTLPWLHDDCAYRKALGVRLSKVRMNGRNKGKRG
protein production: failed

MPTKKADIYTLAKFGDLGAFKESFKIENINDKSESGSGLLHYAISGLKFDIAMFLIENGIDVNITNEVGQTALHYICNYPNIDVAKCILKHGGDINIRDKYYNNALWTAVFNCKGRYYDMVELFMEYSPDVETKNNAGRSPLDFAIQVGNEKLIKMLRKKE
protein production: failed

MAKPVYHAITKYSPKKPVIVFVPSRKQTRLTAIDILTTCAADIQRQRFLHCTEKDLIPYLEKLSDSTLKETLLNGVGYLHEGLSPMERRLVEQLFSSGAIQVVVASRSLCWGMNVAAHLVIIMDTQYYNGKIHAYVDYPIYDVLQMVGHANRPLQDDEGRCVIMCQGSKKDFFKKFLYEPLPVESHLDHCMHDHFNAEIVTKTIENKQDAVDYLTWTFLYRRMTQNPNYYNLQGISHRHLSDHLSELVEQTLSDLEQSKCISIEDEMDVAPLNLGMIAAYYYINYTTIELFSMSLNAKTKVRGLIEIISNAAEYENIPIRHHEDNLLRQLAQKVPHKLNNPKFNDPHVKTNLLLQAHLSRMQLSAELQSDTEEILSKAIRLIQACVDVLSSNGWLSPALAAMELAQMVTQAMWSKDSYLKQLPHFTSEHIKRCTDKGVESVFDIMEMEDEERNALLQLTDSQIADVARFCNRYPNIELSYEVVDKDSIRSGGPVVVLVQLEREEEVTGPVIAPLFPQKREEGWWVVIGDAKSNSLISIKRLTLQQKAKVKLDFVAPATGAHNYTLYFMSDAYMGCDQEYKFSVDVKEAETDSDSD
protein production: failed

MTYVYRKNPVAAATVTVKYIDTQGNSISDSIPLSGNVDQEYTTEQKIISGYTFKEVQGNKSGLFSTTPQTVTYIYTKNPIEIKTGTVTIKYVDTNGNSISDEITKSGNVGSLYTSEQKKILGYNFKEIQGIAEGQFTIESQTVTYVYTKISTPTIIKTSVIPPKTLSVKTLPKESLPETGDKFFGFTLLSGSLLILVSTTLYLLKSRKYK
protein production: failed

SKELKVLVLCAGSGTSAQLANAINEGANLTEVRVIANSGAYGAHYDIMGVYDLIILAPQVRSYYREMKVDAERLGIQIVATRGMEYIHLTKSPSKALQFVLEHYQ
protein production: not failed

MGVPEPRPDWSRRLLGQGEAPDPRFTLANERTFLAWVRTALALLGGAIAIETFAGHVLETPLRLWLVAGLMLLSALLSAGACLRWLRVERALRRRRPLPLPALVPLLALGCLVAVLLAGLVLWPRWHG
protein production: failed

MNKFIKYFLILLSFGLLVVPIIFATQLYQSSESAFESSQNTKDSQRKSTLRDSKVDPEKQPISILFLGIDDNEGREKNGQSVEHSRSDAMILSTFNQKKHQIRMLSIPRDTISYIPKVGYYDKITHAHAYGGPLAAMDSVEATMNVPVDYYVRINMKAFVEAVDELGGIYYDVPYNLNEPNSDDTGRIKIKKGYQKLNGDQALAVARTRHHDSDLKRGQRQMELIKILFQKAQNLKSIDKLDNVISIVGKNAKHNLTQKEIKSLAKMYLGGSTEIKTSQLKGKDDYLNDIYYYHPSVKSIMEYSNLLRNDLDLSKITNKNDFLDQRVIKRYGSLVPLTELDEDLLRKNQKESTDSQKESDSSSQNNDEEDQTNEQTDQNSLNGNEQYPNQQDNNQTNGENGMINNDNYPYAQ
protein production: failed
